In patent US20150344570A1 (published 2015) one finds He/Con_1a data, which are given here for 26 molecules.

The labels stand for the following.
B1: GpH7-A5/GpH7-B3 variant Q295_04F/GpL16-k0 (antibody, human IgG1, kappa)
heavy 1: not shown
heavy 2: not shown
light: DIVMTQSPLSLPVTPGEPASISCQASESLVHSNRNTYLHWYLQKPGQSPQLLIYKVSNRFSGVPDRFSGSGSGTDFTLKISRVEAEDVGVYYCSQNTHVPPTFGQGTKVEIERTVAAPSVFIFPPSDEQLKSGTASVVCLLNNFYPREAKVQWKVDNALQSGNSQESVTEQDSKDSTYSLSSTLTLSKADYEKHKVYACEVTHQGLSSPVTKSFNRGEC
notes: also called He Ab Q295_04F
B2: GpH7-A5/GpH7-B3 variant S337_06M/GpL16-k0 (antibody, human IgG1, kappa)
heavy 1: not shown
heavy 2: not shown
light: B1 light
notes: also called He Ab S337_06M
B3: GpH7-A5/GpH7-B3 variant S337_02A/GpL16-k0 (antibody, human IgG1, kappa)
heavy 1: not shown
heavy 2: not shown
light: B1 light
notes: also called He Ab S337_02A
B4: GpH7-A5/GpH7-B3 variant S267_02A/GpL16-k0 (antibody, human IgG1, kappa)
heavy 1: not shown
heavy 2: not shown
light: B1 light
notes: also called He Ab S267_02A
B5: GpH7-A5/GpH7-B3 variant S267_16H/GpL16-k0 (antibody, human IgG1, kappa)
heavy 1: not shown
heavy 2: not shown
light: B1 light
notes: also called He Ab S267_16H
B6: GpH7-A5/GpH7-B3 variant S298_04F/GpL16-k0 (antibody, human IgG1, kappa)
heavy 1: not shown
heavy 2: not shown
light: B1 light
notes: also called He Ab S298_04F
B7: GpH7-A5/GpH7-B3 variant S298_03V/GpL16-k0 (antibody, human IgG1, kappa)
heavy 1: not shown
heavy 2: not shown
light: B1 light
notes: also called He Ab S298_03V
B8: GpH7-A5/GpH7-B3 variant Q295_05P/GpL16-k0 (antibody, human IgG1, kappa)
heavy 1: not shown
heavy 2: not shown
light: B1 light
notes: also called He Ab Q295_05P
B9: GpH7-A5/GpH7-B3 variant Q295_18N/GpL16-k0 (antibody, human IgG1, kappa)
heavy 1: not shown
heavy 2: not shown
light: B1 light
notes: also called He Ab Q295_18N
B10: GpH7-A5/GpH7-B3 variant S337_03V/GpL16-k0 (antibody, human IgG1, kappa)
heavy 1: not shown
heavy 2: not shown
light: B1 light
notes: also called He Ab S337_03V
B11: GpH7-A5/GpH7-B3 variant S324_11K/GpL16-k0 (antibody, human IgG1, kappa)
heavy 1: not shown
heavy 2: not shown
light: B1 light
notes: also called He Ab S324_11K
B12: GpH7-A5/GpH7-B3 variant S298_10E/GpL16-k0 (antibody, human IgG1, kappa)
heavy 1: not shown
heavy 2: not shown
light: B1 light
notes: also called He Ab S298_10E
B13: GpH7-A5/GpH7-B3 variant S298_16H/GpL16-k0 (antibody, human IgG1, kappa)
heavy 1: not shown
heavy 2: not shown
light: B1 light
notes: also called He Ab S298_16H
B14: GpH7-A5/GpH7-B3 variant S324_19Q/GpL16-k0 (antibody, human IgG1, kappa)
heavy 1: not shown
heavy 2: not shown
light: B1 light
notes: also called He Ab S324_19Q
B15: GpH7-A5/GpH7-B3 variant S298_12R/GpL16-k0 (antibody, human IgG1, kappa)
heavy 1: not shown
heavy 2: not shown
light: B1 light
notes: also called He Ab S298_12R
B16: GpH7-A5/GpH7-B3 variant S298_18N/GpL16-k0 (antibody, human IgG1, kappa)
heavy 1: not shown
heavy 2: not shown
light: B1 light
notes: also called He Ab S298_18N
B17: GpH7-A5/GpH7-B3 variant S324_18N/GpL16-k0 (antibody, human IgG1, kappa)
heavy 1: not shown
heavy 2: not shown
light: B1 light
notes: also called He Ab S324_18N
B18: GpH7-A5/GpH7-B3 variant S324_12R/GpL16-k0 (antibody, human IgG1, kappa)
heavy 1: not shown
heavy 2: not shown
light: B1 light
notes: also called He Ab S324_12R
B19: GpH7-A5/GpH7-B3 variant S239_01G/GpL16-k0 (antibody, human IgG1, kappa)
heavy 1: not shown
heavy 2: not shown
light: B1 light
notes: also called He Ab S239_01G
B20: GpH7-A5/GpH7-B3 variant S239_09D/GpL16-k0 (antibody, human IgG1, kappa)
heavy 1: not shown
heavy 2: not shown
light: B1 light
notes: also called He Ab S239_09D
B21: GpH7-A5/GpH7-B3 variant S324_08L/GpL16-k0 (antibody, human IgG1, kappa)
heavy 1: not shown
heavy 2: not shown
light: B1 light
notes: also called He Ab S324_08L
B22: GpH7-A5/GpH7-B3 variant S267_08L/GpL16-k0 (antibody, human IgG1, kappa)
heavy 1: not shown
heavy 2: not shown
light: B1 light
notes: also called He Ab S267_08L
B23: GpH7-A5/GpH7-B3 variant S298_20W/GpL16-k0 (antibody, human IgG1, kappa)
heavy 1: not shown
heavy 2: not shown
light: B1 light
notes: also called He Ab S298_20W
B24: GpH7-A5/GpH7-B3 variant S239_14T/GpL16-k0 (antibody, human IgG1, kappa)
heavy 1: not shown
heavy 2: not shown
light: B1 light
notes: also called He Ab S239_14T
B25: GpH7-A5/GpH7-B3 variant S239_19Q/GpL16-k0 (antibody, human IgG1, kappa)
heavy 1: not shown
heavy 2: not shown
light: B1 light
notes: also called He Ab S239_19Q
B26: GpH7-A5/GpH7-B3 variant S298_15Y/GpL16-k0 (antibody, human IgG1, kappa)
heavy 1: not shown
heavy 2: not shown
light: B1 light
notes: also called He Ab S298_15Y

For the assay, the target named is T1, FcγRIa (human, UniProt P12314 16-292).
T1 construct: extracellular domain; Soluble extracellular domain expressed in FreeStyle293 cells, used as analyte in Biacore; also called FcgRI; 1a; not shown: His tag attached to the C terminus
T1 sequence (P12314 16-292): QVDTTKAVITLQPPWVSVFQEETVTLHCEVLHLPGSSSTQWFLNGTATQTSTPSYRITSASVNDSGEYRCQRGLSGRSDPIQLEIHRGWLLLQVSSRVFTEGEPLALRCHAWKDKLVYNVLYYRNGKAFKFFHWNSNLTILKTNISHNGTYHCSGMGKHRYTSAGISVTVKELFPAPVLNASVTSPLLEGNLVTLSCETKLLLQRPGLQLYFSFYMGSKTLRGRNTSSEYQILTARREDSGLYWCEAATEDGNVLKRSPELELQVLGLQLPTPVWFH
Nature of the assay: SPR (Biacore); He Ab vs HeCon Ab GpH7-A5/GpH7-B3/GpL16-k0. How it is done:
Analysis of interaction between objective antibody and the FcγR was carried out using Biacore T100 (GE Healthcare). HBS-EP+ (GE Healthcare) was used as the running buffer, and the measurement temperature was set to 25° C. Chips produced by immobilizing the antigen peptide by the amine coupling method to a Series S Sencor Chip CM5 (GE Healthcare), or alternatively, chips produced by allowing preliminarily biotinylated antigen peptides to interact with and immobilize onto a Series S Sensor Chip SA (certified) (GE Healthcare) were used. Antibodies of interest were captured onto an antigen peptide-immobilized chip, and allowed to interact to each FcγR diluted with running buffer. To regenerate and repeatedly use the chip, the antibodies captured on the chip were washed off by reacting 10 mM glycine-HCl, pH 1.5.
In general terms: Surface plasmon resonance follows binding to a sensor surface in real time, without labels.
For B1, the He/Con_1a was 102 relative binding, control = 100.
The result for B2 reads 107 relative binding, control = 100; that for B3, 106 relative binding, control = 100.
B4: the He/Con_1a is 109 relative binding, control = 100.
As to B5, the He/Con_1a is 100 relative binding, control = 100.
As for B6, the figure is 109 relative binding, control = 100.
As for B7, the figure is 110 relative binding, control = 100.
The result for B8 reads 103 relative binding, control = 100; that for B9, 102 relative binding, control = 100; that for B10, 107 relative binding, control = 100.
With B11, the He/Con_1a was 102 relative binding, control = 100.
As for B12, the figure is 108 relative binding, control = 100; as for B13, 109 relative binding, control = 100.
As for B14, the figure is 112 relative binding, control = 100; as for B15, 109 relative binding, control = 100.
Consider B16, for which the He/Con_1a is 108 relative binding, control = 100.
The result for B17 reads 116 relative binding, control = 100; that for B18, 102 relative binding, control = 100.
On to B19, for which the He/Con_1a was 101 relative binding, control = 100.
As for B20, the figure is 101 relative binding, control = 100; as for B21, 103 relative binding, control = 100.
The result for B22 reads 101 relative binding, control = 100.
As for B23, the figure is 104 relative binding, control = 100; as for B24, 101 relative binding, control = 100.
B25: the He/Con_1a is 101 relative binding, control = 100.
The result for B26 reads 107 relative binding, control = 100.
